Results from patent US20050153894A1, “p21 peptides” (Cyclacel Limited, priority 1999, published 2005).
Values belong to the compound of their own block, whether it stands above or below them. Square brackets hold non-standard residues; d marks the D form. Ends that are not written are not given here. Phe(4-F) = N[C@@H](Cc1ccc(F)cc1)C(=O)O; 1Nal = N[C@@H](Cc1cccc2ccccc12)C(=O)O; 2Nal = N[C@@H](Cc1ccc2ccccc2c1)C(=O)O; hPhe = N[C@@H](CCc1ccccc1)C(=O)O; Tic = O=C(O)[C@@H]1Cc2ccccc2CN1; Cha = N[C@@H](CC1CCCCC1)C(=O)O; Phe(ol) = N[C@H](CO)Cc1ccccc1; Tle = CC(C)(C)[C@H](N)C(=O)O; Nle = CCCC[C@H](N)C(=O)O; Nva = CCC[C@H](N)C(=O)O; dPse = not defined here

Columns and labels:
[1] = biological target: CDK2/cyclin A (Homo sapiens, UniProt P20248); test: CDK2/cyclin A kinase assay, substrate pRb(773-928); format: biochemical; conditions: for Relative activity Kinase Inhibition: pRb substrate, [ATP] = 100 μM
Source text: Reactions were stopped on ice, followed by filtration through p81 filterplates (Whatman Polyfiltronics, Kent, UK).

[2] = biological target: Cyclin A (Homo sapiens, UniProt P20248); test: Cyclin A binding assay, immobilised biotinyl-Ahx-[…]NH2
Protocol: This was added to each well (100 μL). The plate was incubated for 1 h at room temperature with constant shaking. The plate was washed once quickly with TBS/BSA buffer (200 μL), followed by three more washes with TBS/BSA buffer (200 μL) for 5 min each. Serial dilutions of test peptides were prepared in a new plate (50 μL in each well). Cyclin A was diluted to 5 μg/50 μL with TBS/BSA buffer and this was then added to each well (50 μL). The solutions were mixed thoroughly with a pipette (5-6 times), before being incubated for 30 min at room temperature. This reaction mixture was then transferred to the biotinylated peptide: streptavidin-coated plate and incubated for 1 h at room temperature with constant shaking. The plate was washed once quickly with TBS/BSA buffer (200 μL), followed by three more washes with TBS/BSA buffer (200 μL) for 5 min each. The cyclin A antibody (Santa Cruz polyclonal) solution was diluted 1:200 with TBS/BSA buffer and this was then added to each well of the plate (100 μL. The plate was incubated for 1 h at room temperature with constant shaking. The plate was washed once quickly with TBS/BSA buffer (200 μl), followed by three more washes with TBS/BSA buffer (200 μL) for 5 min each. The anti-rabbit secondary antibody (goat anti-rabbit IgG peroxidase conjugate) was diluted 1:10,000 with TBS/BSA and this was then added to each well of the plate (100 μL). The plate was incubated for 1 h at room temperature with constant shaking. The plate was washed once quickly with TBS/BSA buffer (200 μL), followed by three more washes with TBS/BSA buffer (200 μL) for 5 min each. To each well was added the TMB-ELISA reagent (Pierce 1-Step™ Turbo TMB-ELISA; 100 μL) and the plate incubated for 1 min with constant shaking. The reaction was then quenched by the addition of 2 M aqueous H2SO4 (100 μL, each well). The UV absorbance of the each solution was measured spectrophotometrically at 450 nm. IC50 values were calculated from dose-response curves.

[3] = Ala153 substitutions, relative to H-His-Ala-Lys-Arg-Arg-Leu-Ile-Phe-NH2 (=1)
[4] = Ile158 substitutions, relative to H-His-Ala-Lys-Arg-Arg-Leu-Ile-Phe-NH2 (=1)
[5] = Leu157 substitutions, relative to H-His-Ala-Lys-Arg-Arg-Leu-Ile-Phe-NH2 (=1)
[6] = relative to H-His-Ala-Lys-Arg-Arg-Leu-Ile-Phe-NH2 (SEQ ID No. 36) = 1, CDK2/cyclin A kinase assay
[7] = relative to SEQ ID No. 36 = 1, competitive cyclin A binding, immobilised biotinyl-Ahx-His-Ala-Lys-Arg-Arg-Leu-Ile-Phe-NH2
[8] = Lys154 substitutions, relative to H-His-Ala-Lys-Arg-Arg-Leu-Ile-Phe-NH2 (=1)
[9] = Phe159 substitutions, relative to H-His-Ala-Lys-Arg-Arg-Leu-Ile-Phe-NH2 (=1)
[10] = His152 substitutions, relative to H-His-Ala-Lys-Arg-Arg-Leu-Ile-Phe-NH2 (=1)
[11] = Arg155 substitutions, relative to H-His-Ala-Lys-Arg-Arg-Leu-Ile-Phe-NH2 (=1)

Chain of Cyclin A (P20248 whole entry): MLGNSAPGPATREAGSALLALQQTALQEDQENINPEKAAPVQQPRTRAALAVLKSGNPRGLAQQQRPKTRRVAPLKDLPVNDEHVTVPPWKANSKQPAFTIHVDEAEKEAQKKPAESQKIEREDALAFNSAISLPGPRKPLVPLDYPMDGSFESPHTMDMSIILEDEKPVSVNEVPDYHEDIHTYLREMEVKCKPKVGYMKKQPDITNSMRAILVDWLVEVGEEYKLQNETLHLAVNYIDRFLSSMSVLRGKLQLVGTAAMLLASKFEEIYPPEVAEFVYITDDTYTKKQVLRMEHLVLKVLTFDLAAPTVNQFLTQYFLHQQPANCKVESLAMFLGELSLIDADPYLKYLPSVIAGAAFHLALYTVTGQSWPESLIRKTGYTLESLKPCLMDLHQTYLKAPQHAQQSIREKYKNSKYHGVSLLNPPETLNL

Relative activity Kinase Inhibition [1, 6]: 0.6 | Relative activity Cyclin A Binding [2, 7]: 1.0
Compound: 120 (H-HAKRRLI[Phe(ol)]) [compound 120]

Relative activity Kinase Inhibition [1, 10]: <0.1 | Relative activity Cyclin A Binding [2, 10]: 0.2
Compound: H-Pya-Ala-Lys-Arg-Arg-Leu-Ile Phe-NH2 (XAKRRLIF; N-terminal Pya, C-terminal amide)

Relative activity Kinase Inhibition [1, 5]: <0.1 | Relative activity Cyclin A Binding [2, 5]: <0.1
Compound: H-His-Ala-Lys-Arg-Arg-Nva-Ile Phe-NH2 (H-HAKRR[Nva]IF-NH2; SMILES CCC[C@H](NC(=O)[C@H](CCCNC(=N)N)NC(=O)[C@H](CCCNC(=N)N)NC(=O)[C@H](CCCCN)NC(=O)[C@H](C)NC(=O)[C@@H](N)Cc1c[nH]cn1)C(=O)N[C@H](C(=O)N[C@@H](Cc1ccccc1)C(N)=O)[C@@H](C)CC)

Relative activity Kinase Inhibition [1, 4]: 0.8 | Relative activity Cyclin A Binding [2, 4]: 1.5
Compound: H-His Ala-Lys-Arg-Arg-Leu-Val-Phe-NH2 (H-HAKRRLVF-NH2)

Relative activity Kinase Inhibition [1, 9]: <0.1 | Relative activity Cyclin A Binding [2, 9]: <0.1
Compound: HAKRRLIK-NH2

Relative activity Kinase Inhibition [1, 3]: 0.5 | Relative activity Cyclin A Binding [2, 3]: 0.2
Compound: H-His-Ile-Lys-Arg-Arg-Leu-Ile Phe-NH2 (H-HIKRRLIF-NH2)

Relative activity Kinase Inhibition [1, 3]: 0.1 | Relative activity Cyclin A Binding [2, 3]: 0.1
Compound: H-His-Gly-Lys-Arg-Arg-Leu-Ile Phe-NH2 (H-HGKRRLIF-NH2)

Relative activity Kinase Inhibition [1, 9]: <0.1 | Relative activity Cyclin A Binding [2, 9]: <0.1
Compound: H-His-Ala-Lys-Arg-Arg-Leu-Ile-Hof-NH2 (H-HAKRRLI[hPhe]-NH2; SMILES CC[C@H](C)[C@H](NC(=O)[C@H](CC(C)C)NC(=O)[C@H](CCCNC(=N)N)NC(=O)[C@H](CCCNC(=N)N)NC(=O)[C@H](CCCCN)NC(=O)[C@H](C)NC(=O)[C@@H](N)Cc1c[nH]cn1)C(=O)N[C@@H](CCc1ccccc1)C(N)=O)

Relative activity Kinase Inhibition [1, 5]: <0.1 | Relative activity Cyclin A Binding [2, 5]: <0.1
Compound: H-His-Ala-Lys-Arg-Arg-Cha-Ile Phe-NH2 (H-HAKRR[Cha]IF-NH2; SMILES CC[C@H](C)[C@H](NC(=O)[C@H](CC1CCCCC1)NC(=O)[C@H](CCCNC(=N)N)NC(=O)[C@H](CCCNC(=N)N)NC(=O)[C@H](CCCCN)NC(=O)[C@H](C)NC(=O)[C@@H](N)Cc1c[nH]cn1)C(=O)N[C@@H](Cc1ccccc1)C(N)=O)

The next lines start with the compound.

Compound: H-His-Bug-Lys-Arg-Arg-Leu-Ile Phe-NH2 (H-H[Tle]KRRLIF-NH2; SMILES CC[C@H](C)[C@H](NC(=O)[C@H](CC(C)C)NC(=O)[C@H](CCCNC(=N)N)NC(=O)[C@H](CCCNC(=N)N)NC(=O)[C@H](CCCCN)NC(=O)[C@@H](NC(=O)[C@@H](N)Cc1c[nH]cn1)C(C)(C)C)C(=O)N[C@@H](Cc1ccccc1)C(N)=O)
Relative activity Kinase Inhibition [1, 3]: 0.2 | Relative activity Cyclin A Binding [2, 3]: 1.2

Compound: HAKRRLLF-NH2
Relative activity Kinase Inhibition [1, 4]: 1.2 | Relative activity Cyclin A Binding [2, 4]: 0.6

Compound: H-His-Ala-Lys-Arg-Arg-Nle-Ile Phe-NH2 (H-HAKRR[Nle]IF-NH2; SMILES CCCC[C@H](NC(=O)[C@H](CCCNC(=N)N)NC(=O)[C@H](CCCNC(=N)N)NC(=O)[C@H](CCCCN)NC(=O)[C@H](C)NC(=O)[C@@H](N)Cc1c[nH]cn1)C(=O)N[C@H](C(=O)N[C@@H](Cc1ccccc1)C(N)=O)[C@@H](C)CC)
Relative activity Kinase Inhibition [1, 5]: <0.1 | Relative activity Cyclin A Binding [2, 5]: <0.1

Compound: H-His-Ala-Ala-Arg-Arg-Leu-Ile Phe-NH2 (H-HAARRLIF-NH2)
Relative activity Kinase Inhibition [1, 8]: <0.1 | Relative activity Cyclin A Binding [2, 8]: 0.5

Compound: HAKRRLIY-NH2
Relative activity Kinase Inhibition [1, 9]: 0.3 | Relative activity Cyclin A Binding [2, 9]: 0.2

Compound: 111 (H-HAKRRLI[dPse]-OH; reading uncertain) [compound 111]
Relative activity Kinase Inhibition [1, 6]: <0.1 | Relative activity Cyclin A Binding [2, 7]: 0.1

Compound: H-His-Val-Lys-Arg-Arg-Leu-Ile Phe-NH2 (H-HVKRRLIF-NH2)
Relative activity Kinase Inhibition [1, 3]: 2 | Relative activity Cyclin A Binding [2, 3]: 1.7

Compound: H-His-Ala-Lys-Arg-Arg-Leu-Ile-Tic-NH2 (H-HAKRRLI[Tic]-NH2; SMILES CC[C@H](C)[C@H](NC(=O)[C@H](CC(C)C)NC(=O)[C@H](CCCNC(=N)N)NC(=O)[C@H](CCCNC(=N)N)NC(=O)[C@H](CCCCN)NC(=O)[C@H](C)NC(=O)[C@@H](N)Cc1c[nH]cn1)C(=O)N1Cc2ccccc2C[C@H]1C(N)=O)
Relative activity Kinase Inhibition [1, 9]: 0.3 | Relative activity Cyclin A Binding [2, 9]: <0.1

Compound: H-His-Ala-Lys-Arg-Arg-Leu-Cha-Phe-NH2 (H-HAKRRL[Cha]F-NH2; SMILES CC(C)C[C@H](NC(=O)[C@H](CCCNC(=N)N)NC(=O)[C@H](CCCNC(=N)N)NC(=O)[C@H](CCCCN)NC(=O)[C@H](C)NC(=O)[C@@H](N)Cc1c[nH]cn1)C(=O)N[C@@H](CC1CCCCC1)C(=O)N[C@@H](Cc1ccccc1)C(N)=O)
Relative activity Kinase Inhibition [1, 4]: 0.3 | Relative activity Cyclin A Binding [2, 4]: 0.5

Compound: H-His-Ala-Lys-Arg-Arg-Leu-Ile-2Nap-NH2 (H-HAKRRLI[2Nal]-NH2; SMILES CC[C@H](C)[C@H](NC(=O)[C@H](CC(C)C)NC(=O)[C@H](CCCNC(=N)N)NC(=O)[C@H](CCCNC(=N)N)NC(=O)[C@H](CCCCN)NC(=O)[C@H](C)NC(=O)[C@@H](N)Cc1c[nH]cn1)C(=O)N[C@@H](Cc1ccc2ccccc2c1)C(N)=O)
Relative activity Kinase Inhibition [1, 9]: 1.2 | Relative activity Cyclin A Binding [2, 9]: 0.7

Compound: CC(=O)N[C@@H](CCCN=C(N)N)C(=O)N[C@@H](CCCN=C(N)N)C(=O)N[C@@H](CC(C)C)C(=O)N[C@@H](CC(N)=O)C(=O)N[C@@H](Cc1ccccc1)C(N)=O [compound 378]
IC50 [1]: 37.2 µM | IC50 [2]: 8.15 µM

Compound: H-His-Ala-Lys-Arg-Arg-Leu-Ile-pFPhe-NH2 (H-HAKRRLI[Phe(4-F)]-NH2; SMILES CC[C@H](C)[C@H](NC(=O)[C@H](CC(C)C)NC(=O)[C@H](CCCNC(=N)N)NC(=O)[C@H](CCCNC(=N)N)NC(=O)[C@H](CCCCN)NC(=O)[C@H](C)NC(=O)[C@@H](N)Cc1c[nH]cn1)C(=O)N[C@@H](Cc1ccc(F)cc1)C(N)=O)
Relative activity Kinase Inhibition [1, 9]: 1 | Relative activity Cyclin A Binding [2, 9]: 5

Compound: HAKRRLFF-NH2
Relative activity Kinase Inhibition [1, 4]: 0.4 | Relative activity Cyclin A Binding [2, 4]: 0.4

Compound: H-His-Ala-Lys-Lys-Arg-Leu-Ile Phe-NH2 (H-HAKKRLIF-NH2)
Relative activity Kinase Inhibition [1, 11]: 0.8 | Relative activity Cyclin A Binding [2, 11]: 0.1

Compound: H-His-Ala-Lys-Arg-Arg-Leu-Ile-Cha-NH2 (H-HAKRRLI[Cha]-NH2; SMILES CC[C@H](C)[C@H](NC(=O)[C@H](CC(C)C)NC(=O)[C@H](CCCNC(=N)N)NC(=O)[C@H](CCCNC(=N)N)NC(=O)[C@H](CCCCN)NC(=O)[C@H](C)NC(=O)[C@@H](N)Cc1c[nH]cn1)C(=O)N[C@@H](CC1CCCCC1)C(N)=O)
Relative activity Kinase Inhibition [1, 9]: <0.1 | Relative activity Cyclin A Binding [2, 9]: <0.1

Compound: H-His-Ala-Lys-Arg-Arg-Leu-Ile-1Nap-NH2 (H-HAKRRLI[1Nal]-NH2; SMILES CC[C@H](C)[C@H](NC(=O)[C@H](CC(C)C)NC(=O)[C@H](CCCNC(=N)N)NC(=O)[C@H](CCCNC(=N)N)NC(=O)[C@H](CCCCN)NC(=O)[C@H](C)NC(=O)[C@@H](N)Cc1c[nH]cn1)C(=O)N[C@@H](Cc1cccc2ccccc12)C(N)=O)
Relative activity Kinase Inhibition [1, 9]: 0.2 | Relative activity Cyclin A Binding [2, 9]: <0.1
